For experiment [1], the target named is T1, human TGFβRII-Fc (recombinant extracellular domain of human TGFβRII linked with human Fc or heavy chain … (human, UniProt P37173 23-166)).
T1 construct: not shown: human Fc or heavy chain constant region
Briefly: SPR (BIAcore 2000), human TGFβRII ECD-Fc immobilised, room temperature. The method, then:
(§1) Kinetic analyses of the mAbs are performed by immobilization of a fusion protein of recombinant extracellular domain of either mouse TGFβRII (SEQ ID NO: 51), or the extracellular domain of human TGFβRII (SEQ ID NO: 52) linked, respectively, with either mouse or human Fc or heavy chain constant region, onto a sensor surface at a concentration of from 5 to 100 nM.
(In general: Surface plasmon resonance follows binding to a sensor surface in real time, without labels.)

Experiment [2] concerns the target T2, soluble recombinant human TGFβRII alkaline phosphatase (TGFβRII-AP) (human, UniProt P37173 23-166).
T2 construct: also called TGFβII-AP; not shown: alkaline phosphatase fusion partner
Briefly: blocking ELISA: TGFβRII-AP binding to coated human TGFβ2. The source says:
(§2) At day 10 to 12 post-fusion, the hybridomas are screened for antibody production and specific binding activity of culture supernatants with TGFβRII protein in ELISA-based binding and blocking assays. Specifically, hybridomas producing anti-TGFβRII mAbs are first identified by detection of TGFβRII-bound antibody with a goat anti-human kappa light chain or anti-mouse IgG horse radish peroxidase (HRP) conjugated antibody according to the following procedure. Human TGFβRII-Fc or mouse TGFβRII-Fc is coated at 100 ng/well on 96 microtiter plates at 4° C. overnight. The coated plates are blocked with the blocking buffer (PBS 0.05% TWEEN® 20 containing 5% dry milk) at room temperature for 2 hours. Hybridoma supernatants or purified antibodies are diluted in PBS with 2% bovine serum albumin (BSA) and 0.05% TWEEN® 20 (ELISA buffer) and incubated in TGFβRII-coated, 96-well, microtiter plates for 30 minutes. Plates are washed with the ELISA buffer and incubated with goat anti-human kappa light chain or anti-mouse IgG-HRP conjugate for 30 minutes. TMB (3,3′,5,5′-tetra-methylbenzidine) substrate is used for color development following the manufacturer's instructions. The absorbance at 450 nanometers (nm) is read for quantification of binding activity of antibodies. For identification of hybridomas producing neutralizing anti-TGFβRII mAbs, an ELISA based blocking assay is performed according to the following procedure. TGFβ1, TGFβ2, or TGFβ3 is coated at 200 ng per well on 96-well plates, and wells are then blocked with the blocking buffer. […] The absorbance at 405 nm is read for quantification of TGFβRII-binding to TGFβ1, TGFβ2, and TGFβ3. Optical density (OD) values are read on a microtiter plate reader (Molecular Devices Corp., Sunnyvale, Calif.).
(§3) The binding and blocking activity of purified anti-TGFβRII mAbs is determined in ELISA as described in “Generation of anti-TGFβRII mAbs” above. ED₅₀ and IC₅₀ of the antibodies are analyzed using GraphPad Prism® software 3.03 (GraphPad Software Inc., San Diego, Calif.).

For experiment [3], the target named is T2, soluble recombinant human TGFβRII …. The experiment is described as follows: blocking ELISA: TGFβRII-AP binding to coated human TGFβ3.
From the text: as §2, §3
A general note: In an ELISA, binding on a coated surface is turned into a signal by an enzyme label.

Experiment [4] addresses T3, native human TGFβRII expressed on the cell surface (human, UniProt P37173 23-567).
T3 construct: also called human TGFβRII on 293-human TGFβRII transfectant cells, MDA-MB-231 and BXPC-3 cells
Briefly: flow cytometry on 293-human TGFβRII transfectant cells; MFI against isotype control. The protocol: (§4) Binding activity of anti-human TGFβRII mAb TGF1 and fluorescein isothiocyanate (FITC)-labeled goat anti-human IgG antibody may be determined by a staining assay with 293-human TGFβRII transfectant cells and human carcinoma cells. Specifically, aliquots of transfectant cells, carcinoma cells, spleen cells, or lymph node cells are harvested from subconfluent cultures and incubated with fluorescein-labeled or unlabeled primary antibodies to desired molecules in PBS with 1% BSA (staining buffer) for 1 hour on ice. A matched IgG isotype is used as a negative control. Cells are washed twice with the staining buffer and then incubated with FITC, Phycoerythrin (PE) or Alxas Red labeled species-specific secondary antibody to primary antibody (BioSource International, Camarillo, Calif.) in the buffer for 30 min on ice. Cells are washed as above and analyzed on a flow cytometer. […] The mean fluorescent intensity units (MFIU) are calculated as the mean log fluorescence multiplied by the percentage of positive population. The mean fluorescent intensity ratio (MFIR) is calculated to quantitate relative expression levels of TGFβRII in the cell lines. The MFIR is the mean fluorescence intensity (MFI) of cells stained with TGFβRII specific mAb divided by the MFI of cells stained with an isotype control antibody.
For orientation: A flow cytometer gives signals particle by particle.

Experiment [5] has as its target T3, native human TGFβRII expressed on the …. Briefly: cell-based or functional assay.
Experiment [6] has as its target T1, human TGFβRII-Fc (recombinant …). The experiment is described as follows: SPR (Biacore), human TGFβRII ECD-Fc immobilised, room temperature. The protocol:
as §1

Experiment [7] has the same target. Briefly: binding ELISA on coated human TGFβRII-Fc (given as ED50).
From the text: as §2, §3

Experiment [8] has as its target T3, native human TGFβRII expressed on the …. The experiment is described as follows: flow cytometry on MDA-MB-231 human breast carcinoma cells; MFI against isotype control. The protocol: as §4
Experiment [9] addresses T2, soluble recombinant human TGFβRII …. The experiment is described as follows: blocking ELISA: TGFβRII-AP binding to coated human TGFβ1.
From the text: as §2, §3

The target of experiment [10] is T4, mouse TGFβRII-Fc (recombinant extracellular domain of mouse TGFβRII linked with mouse Fc or heavy chain … (mouse)).
T4 construct: also called murine TGFβRII; not shown: mouse Fc or heavy chain constant region
T4 chain: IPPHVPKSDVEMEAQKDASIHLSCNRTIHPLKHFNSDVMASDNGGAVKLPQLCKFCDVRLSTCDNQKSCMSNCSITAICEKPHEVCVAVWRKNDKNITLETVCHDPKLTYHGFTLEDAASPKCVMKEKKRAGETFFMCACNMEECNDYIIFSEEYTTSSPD
Briefly: ELISA.

T2 sequence (P37173 23-166): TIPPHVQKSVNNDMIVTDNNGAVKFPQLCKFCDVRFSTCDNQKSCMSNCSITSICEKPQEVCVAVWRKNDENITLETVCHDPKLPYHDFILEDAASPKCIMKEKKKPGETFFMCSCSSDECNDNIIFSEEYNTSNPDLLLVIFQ
T1 sequence (P37173 23-166): as above
T3 sequence (P37173 23-567): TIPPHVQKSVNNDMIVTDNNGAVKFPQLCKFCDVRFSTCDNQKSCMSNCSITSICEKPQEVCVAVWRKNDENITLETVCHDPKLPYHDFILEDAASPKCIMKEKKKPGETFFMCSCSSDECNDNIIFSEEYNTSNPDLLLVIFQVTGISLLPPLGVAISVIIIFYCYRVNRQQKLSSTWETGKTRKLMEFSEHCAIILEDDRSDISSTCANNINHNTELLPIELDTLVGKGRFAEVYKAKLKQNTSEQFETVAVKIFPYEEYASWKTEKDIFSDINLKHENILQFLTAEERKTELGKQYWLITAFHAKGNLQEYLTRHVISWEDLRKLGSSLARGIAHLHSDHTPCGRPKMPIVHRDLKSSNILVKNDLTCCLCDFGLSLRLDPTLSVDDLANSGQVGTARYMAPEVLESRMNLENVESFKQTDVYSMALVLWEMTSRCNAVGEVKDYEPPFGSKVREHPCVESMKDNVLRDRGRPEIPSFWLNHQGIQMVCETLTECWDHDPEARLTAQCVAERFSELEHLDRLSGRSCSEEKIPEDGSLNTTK

B1: anti-human TGFβRII mAb TGF1 (antibody, human IgG1, kappa, V domains shown)
VH: QLQVQESGPGLVKPSETLSLTCTVSGGSISNSYFSWGWIRQPPGKGLEWIGSFYYGEKTYYNPSLKSRATISIDTSKSQFSLKLSSVTAADTAVYYCPRGPTMIRGVIDSWGQGTLVTVSS
VL: EIVLTQSPATLSLSPGERATLSCRASQSVRSYLAWYQQKPGQAPRLLIYDASNRATGIPARFSGSGSGTDFTLTISSLEPEDFAVYYCQQRSNWPPTFGQGTKVEIKG
notes: Human antibody from human-immunoglobulin transgenic mice, engineered as full-length human IgG1 with kappa light chain
For orientation: Kd means a measure of binding affinity in units of concentration. By koff is commonly meant the first-order rate constant of dissociation. For orientation: kon means a measure of how fast the partners come together. By IC50 is commonly meant the point on the concentration scale where inhibition reaches its midpoint. Usually EC50 stands for the concentration at which the effect is half-maximal. Take B1: the Kd in [1] and in experiment [6] was 0.011 nM in each case. The koff in [1] worked out at 1.7e-05 s⁻¹. In addition, the on-rate constant (kon) in experiment [1] is 1.5e+06 M⁻¹ s⁻¹. For the same molecule, the IC50 was 0.54 nM in [2], 0.19 nM in experiment [3] and 0.12 nM in experiment [9]. Also, the “MFIR (mean fluorescent intensity ratio)” value in experiment [4] came out at 46; in [8], 209. For the same molecule, the “IC50 in the p-Smad2 inhibition assay (TGFβ-induced phosphorylation of Smad2, MDA-MB-231 cells, Western blot)” value in experiment [5] turned out to be 5 nM. The EC50 in experiment [7] was determined as 0.059 nM.

B2: anti-human TGFβRII mAb TGF3 (antibody, human IgG1, kappa, V domains shown)
VH: QLQLQESGPGLVKPSETLSLTCTVSGGSISSSSYSWGWIRQPPGKGLEWIGSFYYSGITYYSPSLKSRIIISEDTSKNQFSLKLSSVTAADTAVYYCASGFTMIRGALDYWGQGTLVTVSS
VL: EIVLTQSPATLSLSPGERATLSCRASQSVRSFLAWYQQKPGQAPRLLIYDASNRATGIPARFSGSGSGTDFTLTISSLEPEDFAVYYCQQRSNWPPTFGQGTKVEIKG
notes: Human IgG1 with kappa light chain
On to B2, for which the binding result in experiment [10] is “binds”. Besides, the Kd in [1] and in [6] was 0.019 nM in each case. Further, the koff in experiment [1] worked out at 2.7e-05 s⁻¹. In addition, in [1], the kon was found to be 1.4e+06 M⁻¹ s⁻¹. Moreover, the IC50 was found to be 0.41 nM in [2], 0.13 nM in experiment [3] and 0.1 nM in [9]. Besides, the “IC50 in the p-Smad2 inhibition assay (TGFβ-induced phosphorylation of Smad2)” value in [5] was less than 25 nM. The EC50 in experiment [7] turned out to be 0.031 nM.

B3: anti-human TGFβRII mAb TGF2 (antibody, V domains shown)
VH: QVQLVQSGAAVKKPGESLKISCKGSGYRFTSYWIGWVRQMPGKGLEWMGIIYPGDSDTRYSPSFQGQVTISAGKSISTAYLQWSSLKASDTAMYYCARHGRGYNGYEGAFDIWGQGTMVTVSS
VL: DIQMTQSPSSLSASVGDRVTITCRASQGISSWLAWYQQKPEKAPKSLIYAASSLQSGVPSRFSGSGSGTDFTLTISSLQPEDFATYYCQQYNSYPWTFGQGTKVEIKG
notes: as for B2
Consider B3, for which the binding result in experiment [10] is “binds”. Besides, the Kd in [1] and in experiment [6] was 0.078 nM in each case. The koff in [1] worked out at 3.4e-05 s⁻¹. For the same molecule, the kon in experiment [1] came out at 430000 M⁻¹ s⁻¹. For the same molecule, the IC50 is 0.42 nM in experiment [2], 0.25 nM in experiment [3] and 0.19 nM in experiment [9]. Moreover, in [5], the “IC50 in the p-Smad2 inhibition assay (TGFβ-induced phosphorylation of Smad2)” value is less than 25 nM. In addition, the EC50 in experiment [7] was 0.048 nM.
